For one test, the system named is Cbk1. The test can be described thus: In vitro kinase assay resolved by SDS-PAGE, Ace2/Ssd1 fragments. The format is biochemical, Saccharomyces cerevisiae. The settings on record: Cbk1^352–756 kinase domain (S5D). How it is done:
Kinase assays resolved by SDS-PAGE were conducted with GST-Ace2 or GST-Ssd1 fusions. Reactions contained 1–5 μM substrate, 100–250 nM Cbk1, 5 mM MnCl2, 2 mM DTT, 20 μM ATP, 10 μCi γ-^32P-ATP in Cbk1 buffer. Samples were removed at indicated time points and quenched with SDS-PAGE buffer, followed by SDS-PAGE separation. ^32P was visualized using a Storm phosphorimager (GE Biosciences) and quantified using ImageQuant software.

In test [1] the target is T1, Cbk1(D475A), residues 251-756, intact hydrophobic motif (S. cerevisiae, UniProt P53894 251-756, D475A).
T1 construct: crystallised with AMPPNP; also called Cbk1(HM-T); source: bacterially expressed with Mob2, purified (Ni-NTA, glutathione Sepharose, TEV cleavage, Resource S); not shown: His6, N-terminal, cleaved
T1 sequence (looked up): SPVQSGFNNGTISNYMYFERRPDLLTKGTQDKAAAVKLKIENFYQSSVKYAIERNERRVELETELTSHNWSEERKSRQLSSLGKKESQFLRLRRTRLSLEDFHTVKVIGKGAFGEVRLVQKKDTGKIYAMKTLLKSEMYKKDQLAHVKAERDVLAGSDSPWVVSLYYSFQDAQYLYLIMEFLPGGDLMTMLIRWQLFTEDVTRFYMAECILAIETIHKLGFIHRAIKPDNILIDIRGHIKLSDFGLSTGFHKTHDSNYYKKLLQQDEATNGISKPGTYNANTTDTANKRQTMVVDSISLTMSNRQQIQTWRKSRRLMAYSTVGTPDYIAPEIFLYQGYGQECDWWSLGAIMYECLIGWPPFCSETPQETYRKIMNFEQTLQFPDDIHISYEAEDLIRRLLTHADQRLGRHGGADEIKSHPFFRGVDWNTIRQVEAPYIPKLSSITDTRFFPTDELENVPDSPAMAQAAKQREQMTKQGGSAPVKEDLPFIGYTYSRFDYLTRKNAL
The test can be described thus: crystal structure; Cbk1(D475A) or Cbk1(D475A/T743E) with Mob2, tags cleaved, 4–6 mg/ml, 2 mM AMPPNP, 2 mM MgCl2, 2 mM TCEP; microbatch under oil at 23°C; three crystal forms. The settings on record: both partners purified.

Test [2] deals with T2, Cbk1(D475A/T743E), residues 251-756 (S. cerevisiae, UniProt P53894 251-756, D475A | T743E).
T2 construct: two crystal forms (A, 4.5 Å; B, 3.6 Å); also called Cbk1(HM-E); Cbk1(T743E); source: bacterially expressed with Mob2, purified (Ni-NTA, glutathione Sepharose, TEV cleavage, Resource S); not shown: His6, N-terminal, cleaved
T2 sequence (looked up): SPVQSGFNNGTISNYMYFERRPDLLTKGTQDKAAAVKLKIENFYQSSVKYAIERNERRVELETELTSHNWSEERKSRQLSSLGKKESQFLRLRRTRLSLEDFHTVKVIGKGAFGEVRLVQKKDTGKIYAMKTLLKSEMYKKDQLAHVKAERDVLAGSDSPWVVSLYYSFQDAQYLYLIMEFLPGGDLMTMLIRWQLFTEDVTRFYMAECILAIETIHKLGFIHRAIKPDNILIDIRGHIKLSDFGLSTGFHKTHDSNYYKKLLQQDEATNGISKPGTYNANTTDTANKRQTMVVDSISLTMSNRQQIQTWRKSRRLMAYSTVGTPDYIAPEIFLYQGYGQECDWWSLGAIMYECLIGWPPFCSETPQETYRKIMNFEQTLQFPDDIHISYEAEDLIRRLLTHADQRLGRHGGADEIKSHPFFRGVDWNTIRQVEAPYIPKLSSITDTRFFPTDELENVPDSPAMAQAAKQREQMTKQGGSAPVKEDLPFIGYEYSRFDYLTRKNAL
The description is as above. The settings on record: both partners purified.

For test [3], the target named is T3, Cbk1^352–692 kinase domain (S. cerevisiae, UniProt P53894 352-692).
T3 construct: also called catalytic domain alone; source: bacterially expressed, purified (Ni-NTA, glutathione Sepharose); not shown: His6, C-terminal, kept
T3 sequence (looked up): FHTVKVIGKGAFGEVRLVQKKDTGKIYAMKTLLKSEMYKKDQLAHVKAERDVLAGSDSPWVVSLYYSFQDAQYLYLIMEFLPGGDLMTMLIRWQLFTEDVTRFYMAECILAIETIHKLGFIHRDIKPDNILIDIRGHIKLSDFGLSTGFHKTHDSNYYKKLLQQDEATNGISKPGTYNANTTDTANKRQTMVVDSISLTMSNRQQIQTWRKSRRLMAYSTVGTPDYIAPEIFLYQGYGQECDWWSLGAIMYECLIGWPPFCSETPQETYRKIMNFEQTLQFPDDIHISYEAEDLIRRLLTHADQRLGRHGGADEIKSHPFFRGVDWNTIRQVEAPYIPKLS
The test can be described thus: pull-down; MBP fusions on amylose beads incubated with 1 μM purified Cbk1 on ice for 15 min, washed 3× with PBS; GelCode Blue or immunoblot (His or pS570 antibodies). The settings on record: both partners purified. For orientation: Immunoblotting shows a protein as a band on a membrane.

Test [4] deals with T4, Cbk1^352–756 kinase domain (S. cerevisiae, UniProt P53894 352-756).
T4 construct: source: bacterially expressed, purified (Ni-NTA, glutathione Sepharose); not shown: His6, C-terminal, kept
T4 sequence (looked up): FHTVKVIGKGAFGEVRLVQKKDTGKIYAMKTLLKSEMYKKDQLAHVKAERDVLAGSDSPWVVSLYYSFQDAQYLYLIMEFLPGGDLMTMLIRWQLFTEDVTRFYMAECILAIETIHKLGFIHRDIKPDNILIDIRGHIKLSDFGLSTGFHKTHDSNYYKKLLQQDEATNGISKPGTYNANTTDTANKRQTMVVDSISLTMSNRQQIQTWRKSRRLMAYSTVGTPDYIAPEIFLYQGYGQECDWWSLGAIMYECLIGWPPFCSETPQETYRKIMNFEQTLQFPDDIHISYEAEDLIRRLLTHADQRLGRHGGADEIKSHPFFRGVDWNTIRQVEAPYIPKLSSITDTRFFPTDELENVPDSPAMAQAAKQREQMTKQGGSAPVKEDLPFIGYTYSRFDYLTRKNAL
The test can be described thus: pull-down; pull-down of Cbk1^352–756 by bead-bound Ace2 or Ssd1 docking motifs in competition with unbound Ace2^270–290. To be noted: both partners purified.

B1: Ace2^102–306: Ace2 fragment, kinase substrate containing docking motif (protein, UniProt P21192 102-306, looked up, fragment)
chain: ENNKVSHYSKKSMSSHKRGLSGTAIFGFLGHNKTLSISSLQQSILNMSKDPQPMELINELGNHNTVKNNNDDFDHIRENDGENSYLSQVLLKQQEELRIALEKQKEVNEKLEKQLRDNQIQQEKLRKVLEEQEEVAQKLVSGATNSNSKPGSPVILKTPAMQNGRMKDNAIIVTTNSANGGYQFPPPTLISPRMSNTSINGSPSR
For the molecule B1, in the test on Cbk1, the “enhancement of phosphorylation by docking motif” value was 100 fold.

B2: Mob2, residues 45-287 (natural protein, S. cerevisiae, UniProt P43563 45-287, looked up)
chain: LRNKHHSPKRHSQTSFPAQKSTPQSQQLTSTTPQSQQQEASERSESQQIMFLSEPFVRTALVKGSFKTIVQLPKYVDLGEWIALNVFEFFTNLNQFYGVVAEYVTPDAYPTMNAGPHTDYLWLDANNRQVSLPASQYIDLALTWINNKVNDKNLFPTKNGLPFPQQFSRDVQRIMVQMFRIFAHIYHHHFDKIVHLSLEAHWNSFFSHFISFAKEFKIIDRKEMAPLLPLIESFEKQGKIIYN
notes: the crystallised construct begins at 45 (N-terminal Mob2 region 45-110 not seen in the density); source: bacterially expressed with Cbk1, purified (Ni-NTA, glutathione Sepharose, TEV cleavage, Resource S); not shown: GST, N-terminal, cleaved
Regarding B2, the binding result in test [1] and in test [2] was “binds” in each case.

B3: Ace2^270–290 docking motif, MBP fusion (domain or fragment, S. cerevisiae, UniProt P21192 270-290, looked up)
chain: NAIIVTTNSANGGYQFPPPTL
notes: Ace2 of budding yeast, residues 270-290; also called WT Ace2 (two glycine residues)
B3: the binding result in test [3] and in test [4] was “binds” throughout.

The values are drawn from publication PMC4428629, “The Structure of an NDR/LATS Kinase–Mob Complex Reveals a Novel Kinase–Coactivator System and Substrate Docking Mechanism” (PLoS Biology, 2015).
